T1: Human Fas (CD95) on the cell surface (human, UniProt P25445 26-335)
T1 sequence: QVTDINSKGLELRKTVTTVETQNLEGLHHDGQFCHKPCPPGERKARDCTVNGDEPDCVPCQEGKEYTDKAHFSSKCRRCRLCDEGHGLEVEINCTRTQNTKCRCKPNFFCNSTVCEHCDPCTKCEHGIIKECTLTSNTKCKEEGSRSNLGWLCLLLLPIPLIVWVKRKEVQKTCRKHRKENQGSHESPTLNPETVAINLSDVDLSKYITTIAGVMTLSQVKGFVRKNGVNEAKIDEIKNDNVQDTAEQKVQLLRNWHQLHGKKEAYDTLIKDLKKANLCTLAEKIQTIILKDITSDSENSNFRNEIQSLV

T2: Chimpanzee Fas on the cell surface (chimpanzee, UniProt K6ZIR5 26-335)
T2 construct: also called Fas on chimpanzee B cell line
T2 sequence: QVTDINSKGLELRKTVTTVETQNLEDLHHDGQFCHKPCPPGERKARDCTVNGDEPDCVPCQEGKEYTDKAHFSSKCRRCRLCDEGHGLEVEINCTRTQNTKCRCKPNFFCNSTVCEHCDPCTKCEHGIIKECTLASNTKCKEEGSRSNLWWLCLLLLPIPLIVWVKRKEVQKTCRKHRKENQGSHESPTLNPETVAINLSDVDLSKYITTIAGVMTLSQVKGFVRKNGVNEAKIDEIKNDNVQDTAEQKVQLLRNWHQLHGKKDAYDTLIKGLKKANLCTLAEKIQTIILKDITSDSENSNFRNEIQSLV

T3: Recombinant human soluble Fas receptor (PeproTech, Cat. 310-20) (human, UniProt P25445 17-173)
T3 construct: Bought soluble form; also called sFas; rFas
T3 sequence (looked up): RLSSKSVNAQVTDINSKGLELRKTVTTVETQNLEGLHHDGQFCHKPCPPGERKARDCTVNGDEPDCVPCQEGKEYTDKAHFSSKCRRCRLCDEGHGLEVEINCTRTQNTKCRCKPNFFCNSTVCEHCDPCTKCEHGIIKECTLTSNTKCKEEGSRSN

B1: F45D9-γ1 F(ab′)2 fragment (other)
VH: QVQLQQWGAGLLKPSETLSLICAVYGGSFSTYYWTWIRQPPGKGLEWIGEINHRGTTNYSPSLKSRVTISVDTSKNHISLNLTSVTAADTALYYCARGLLWIGEGDYGLDVWGQGTTVTVSS
VL: DIQMTQSPSSLSASVGDRVTITCRASQGIRRWLAWYQQKPEKAPKSLIYAASSLQSGVPSRFSGSGSGTDFTLTISSLQPEDFATYYCQQYNSYPYTFGQGTKLEIKR
B2: F45D9-γ4 mAb (recombinant human mAb T19/B5-1F9, gamma-4 isotype) (antibody, V domains shown)
VH: QVQLQQWGAGLLKPSETLSLICAVYGGSFSTYYWTWIRQPPGKGLEWIGEINHRGTTNYSPSLKSRVTISVDTSKNHISLNLTSVTAADTALYYCARGLLWIGEGDYGLDVWGQGTTVTVSS
VL: DIQMTQSPSSLSASVGDRVTITCRASQGIRRWLAWYQQKPEKAPKSLIYAASSLQSGVPSRFSGSGSGTDFTLTISSLQPEDFATYYCQQYNSYPYTFGQGTKLEIKR
notes: Whole human IgG4 (γ4P allotype vector pIESRαγ4P) with human kappa light chain, made in CHO DG44 cells; also called IgG4; T19/L22/B5-1F9

How the values were obtained:
[1] = target: T1, Human Fas (CD95) on the cell surface; test: cell-based or functional assay
[2] = target: T2, Chimpanzee Fas on the cell surface; test: flow cytometry on chimpanzee cells
[3] = target: T3, Recombinant human soluble Fas receptor …; test: SPR (BIAcore 3000), soluble Fas immobilized on CM5 chip, antibody as analyte, bivalent analyte fit
Protocol: The interaction of F45D9 mAb's (γ-γ1 and γ4-isotypes) with immobilized soluble human Fas receptor was monitored by surface plasmon resonance detection using a BIAcore 3000 instrument. Recombinant human soluble Fas receptor (srFas) (PeproTech, cat. 310-20) was immobilized (concentration of 5 ug/ml in immobilization buffer: 10 mM sodium acetate pH 5.0) onto a CM5 sensor chip (BIAcore BR-1001-14) using an Amine Coupling kit (BIAcore, Cat. BR-1000-50), at a surface density of […] resonance units (RU). Deactivation of excess reactive groups on the chip surface was done by adding 1.0 M ethalonamine hydrochloride (pH 8.5). F45D9 mAb's-γ1 mAb were passed over the surface in equilibrium binding experiments at concentrations ranging from […] at a flow rate of 30 ul/min. Dilutions and binding experiments were conducted in 0.01 M HEPES (pH 7.4), 0.15 M NaCl, 3 mM EDTA, and 0.005% P-20 (BIAcore surfactant, BR-1001-88). Between each cycle 100 mM HCl was used to regenerate the surfaces at a flow rate 30 ul/min. KA and KD of F45D9 mAb's were-γ1 mAb was determined by fitting bivalentusing BIAcore models (BIAevaluation).

[4] = target: T1, Human Fas (CD95) on the cell surface; test: flow cytometry on Jurkat cells, FITC anti-human IgG secondary, geometric MFI after background subtraction
Protocol: (§1) Binding of F45D9-γ1 and F45D9-γ4 to the surface of Fas expressing Jurkat and SKW6.4 cells (from ATCC, Jurkat, clone E6-1, ATCC-TIB-152, Human T Leukemia cell line); SKW6.4 cells, ATCC-TIB-215, Human B lymphoblastoid cell line) was explored by immunofluorescence staining and flow cytometry analysis. Cells were cultured in RPMI 1640 medium (GIBCO, Cat. 3105205) supplemented with 2 mM glutamax (GIBCO), 100 UI/mL penicillin, 100 μg/mL streptomycin (Sigma) and 5-10% fetal bovine serum (GIBCO), at 37° C. and 5% CO₂. After washing in PBS Jurkat or SKW6.4 cells (0.2×10⁶ cells/well) were incubated in staining buffer (PBS/1% FBS) containing F45D9-γ1, F45D9-γ4 or human IgG control antibodies (Human IgG1, kappa, Sigma, Cat. I5154 or Human IgG4, kappa, Sigma, Cat. I4639) in a 96-well U-bottom plate for 30 min on ice, in a 100 ul/well volume. Cells were then washed once with staining buffer, and further incubated for 30 min on ice with 1:30 dilution of FITC-conjugated rabbit F(ab′)₂ anti-human IgG (DakoCytomation Cat. F0056). After washing and fixing with 1% formaldehyde in PBS cells were analyzed in a FACScan (Becton Dickinson, Mountain View, Calif.). The reactivity of F45D9-γ1 and F45D9-γ4 to the surface of Jurkat cells was quantified and Geometric Mean Fluorescence Intensity (MFI) after background subtraction (FIG. 1A) and histograms (FIG. 1B) are shown. […]

[5] = target: T1, Human Fas (CD95) on the cell surface; test: flow cytometry on SKW6.4 cells, FITC anti-human IgG secondary, geometric MFI after background subtraction
Protocol: as §1

| Binder | share of binding capacity on Jurkat cells at which complete blocking of FasL-induced apoptosis is achieved [1] [%] | IC50 of inhibition of rhFasL-induced apoptosis in SKW6.4 cells (Annexin-V/PI, flow cytometry) [1] [nM] | IC50 of inhibition of rhFasL-induced apoptosis in activated human T cells (Annexin-V/PI, flow cytometry) [1] [nM] | binding result [2] | Kd [3] [nM] | EC50 (read off the curve) [4] [µg/mL] | EC50 (read off the curve) [5] [µg/mL] |
| --- | --- | --- | --- | --- | --- | --- | --- |
| B1 | ≥ 12.5 |  |  |  |  |  |  |
| B2 | ≥ 12.5 | 0.2 | 0.02 | binds | 0.0587 | ~0.6 | ~0.7 |

— patent publication US20100233157A1 (published 2010)
